Experimental data reported in patent publication US12252534 (Scripps Research, dated 2025).

B1: huL5H2_DI-1×DUPA (SEQ ID NOS: 39, 44) (Fab, V domains shown)
VH: EVQLVESGGGLVQPGGSLRLSCAASGFTFNTYAMNWVRQAPGKGLEWVARIRSKYNNYATYYADSVKDRFTISRDDSKNTLYLQMNSLRAEDTAVYYCVRHGNFGNSYVSWFAYWGQGTLVTVSS
VL: QAVVTQEPSLTVSPGGTVTLTCRSSTGAVTTSNYANWVQQKPDHLFRGLIGGTNKRAPGTPARFSGSLLGDKAALTISGAQPEDEAEYYCALWYSNLWVFGGGTKLTVLK
modifications: pAcF at position 141 conjugated by oxime to a DUPA-linker
notes: De-immunized Fab with a single DUPA on the heavy chain; also called L5H2-DI-1X-DUPA; L5H2_DI-1xDUPA
B2: UCHT-1 (SEQ ID NOS: 84, 85) anti-CD3 Fab (Fab, V domains shown)
VH: EVQLVESGGGLVQPGGSLRLSCAASGYSFTGYTMNWVRQAPGKGLEWVALINPYKGVSTYNQKFKDRFTISVDKSKNTAYLQMNSLRAEDTAVYYCARSGYYGDSDWYFDVWGQGTLVTVSS
VL: DIQMTQSPSSLSASVGDRVTITCRASQDIRNYLNWYQQKPGKAPKLLIYYTSRLESGVPSRFSGSGSGTDYTLTISSLQPEDFATYYCQQGNTLPWTFGQGTKVEIKR
notes: The unconjugated UCHT-1 that was tested may carry pAcF residues; also called clone UCHT-1

What was measured:
[1] = biological target: T1, recombinant cynomolgus monkey CD3 delta/epsilon complex (cy.CD3 d/e-Fc) (cynomolgus monkey, UniProt Q95LI8 22-105; Q95LI5 22-117); assay: Octet (BLI), cy.CD3 d/e-Fc captured on Fc sensor, conjugate as analyte; unit inferred, M implied
T1 construct: also called cynoCD3; not shown: Fc portion
T1 sequence (Q95LI8 22-105, stated change not applied, chain 1 of 2): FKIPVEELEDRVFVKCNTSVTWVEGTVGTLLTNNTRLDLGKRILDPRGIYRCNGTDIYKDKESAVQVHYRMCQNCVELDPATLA
T1 sequence (Q95LI5 22-117, stated change not applied, chain 2 of 2): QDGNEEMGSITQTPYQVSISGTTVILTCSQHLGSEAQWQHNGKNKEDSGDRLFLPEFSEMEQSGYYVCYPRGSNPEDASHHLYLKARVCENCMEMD
Experimental: (§1) Analytes were serially diluted 1.2× from 6 μg/mL to 1 μg/mL in the 1×PBS. 100 mM glycine (pH 2.87) regeneration solution, and 1×PBS for baseline stabilization was also prepared. Biosensor, ligand and analytes pair is following: (1) CH-1-antibodies-recombinant human or cynomolgus monkey CD3 delta/epsilon complex, (2) Fc-recombinant human or cynomolgus monkey CD3 delta/epsilon complex-antibodies (3) CH-1-antibodies-recombinant human or cynomolgus monkey PSMA; and (4) Ni-NTA-recombinant human or cynomolgus monkey PSMA-antibodies. Prior to the binding measurements, the sensor tips were pre-hydrated in 1×PBS for 30 min, followed by 1 cycles of pre-conditioning with 60-sec dips in glycine (pH 2.87). The sensor tips were then transferred to the ligand-containing wells for a 180-sec loading step. After a 120-sec baseline dip in 1×PBS, the binding kinetics were measured by dipping the ligand-coated sensors into the wells containing corresponding analyte at varying concentrations. The binding interactions were monitored over a 180-sec association period and followed by a 7.5 to 15-min dissociation period in new wells containing fresh 1×PBS.

[2] = biological target: T2, recombinant human CD3 delta/epsilon complex (hu.CD3 d/e-Fc) (human, UniProt P04234 22-105; P07766 23-126); assay: Octet (BLI), conjugate captured on CH1 sensor, hu.CD3 d/e-Fc as analyte; unit inferred, M implied
T2 construct: not shown: Fc portion
T2 sequence (P04234 22-105, stated change not applied, chain 1 of 2): as the sequence (Q95LI8 22-105, stated change not applied, chain 1 of 2) above, with V5I, K15N, V20I, T32S, N33D, N34I, A64T, N74S, L83V counted along it
T2 sequence (P07766 23-126, stated change not applied, chain 2 of 2): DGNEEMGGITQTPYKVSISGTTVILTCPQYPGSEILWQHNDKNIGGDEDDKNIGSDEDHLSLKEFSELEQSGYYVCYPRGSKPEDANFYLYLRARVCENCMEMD
Experimental: as §1

[3] = biological target: T2, recombinant human CD3 delta/epsilon …; assay: Octet (BLI), hu.CD3de-Fc captured on Fc sensor, conjugate as analyte; unit inferred, M implied
Experimental: as §1

[4] = biological target: T1, recombinant cynomolgus monkey CD3 …; assay: Octet (BLI), conjugate captured on CH1 sensor, cy.CD3 d/e-Fc as analyte; unit inferred, M implied
Experimental: as §1

[5] = biological target: T3, human CD3 on human T cells (Jurkat) (human, UniProt P07766 23-207; P04234 22-171; P09693 23-182); assay: flow cytometry on Jurkat (huCD3+) cells, detected with PE-conjugated anti-human kappa secondary antibody; control is the secondary antibody alone
T3 construct: whole, on cells; also called huCD3+; cell surface CD3 on human (Jurkat) T cells
T3 sequence (P07766 23-207, chain 1 of 3): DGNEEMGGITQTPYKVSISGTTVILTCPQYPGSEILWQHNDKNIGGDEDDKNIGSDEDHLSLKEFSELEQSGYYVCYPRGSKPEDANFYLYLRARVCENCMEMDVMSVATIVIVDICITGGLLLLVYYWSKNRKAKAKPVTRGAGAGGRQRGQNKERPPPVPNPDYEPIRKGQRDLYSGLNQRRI
T3 sequence (P04234 22-171, chain 2 of 3): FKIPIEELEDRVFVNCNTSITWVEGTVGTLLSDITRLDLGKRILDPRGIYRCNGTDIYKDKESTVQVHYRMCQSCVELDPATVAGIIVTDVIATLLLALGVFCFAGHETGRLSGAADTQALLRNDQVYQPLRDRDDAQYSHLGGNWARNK
T3 sequence (P09693 23-182, chain 3 of 3): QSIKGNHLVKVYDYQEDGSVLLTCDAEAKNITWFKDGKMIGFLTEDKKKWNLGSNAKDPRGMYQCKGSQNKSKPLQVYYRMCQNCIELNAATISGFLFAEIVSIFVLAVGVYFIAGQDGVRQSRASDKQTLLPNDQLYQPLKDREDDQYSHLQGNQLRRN
Text: (§2) Flow cytometry was used to test binding of conjugates to cell surface CD3 on human (Jurkat) and cynomolgus (HSC-F) T cells or PSMA on C4-2 cells.

[6] = biological target: T4, cynomolgus CD3 on cynomolgus T cells (HSC-F) (cynomolgus monkey, UniProt Q95LI5 22-198; Q95LI8 22-171; Q95LI7 23-181); assay: flow cytometry on HSC-F (cyCD3+) cells, detected with PE-conjugated anti-human kappa secondary antibody; control is the secondary antibody alone
T4 construct: whole, on cells; also called cyCD3+; cell surface CD3 on cynomolgus (HSC-F) T cells
T4 sequence (Q95LI5 22-198, chain 1 of 3): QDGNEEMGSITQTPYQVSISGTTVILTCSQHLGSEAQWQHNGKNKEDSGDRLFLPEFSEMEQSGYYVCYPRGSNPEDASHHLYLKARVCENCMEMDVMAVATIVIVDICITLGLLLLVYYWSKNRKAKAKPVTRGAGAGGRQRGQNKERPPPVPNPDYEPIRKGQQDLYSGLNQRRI
T4 sequence (Q95LI8 22-171, chain 2 of 3): as the sequence (P04234 22-171, chain 2 of 3) above, with I5V, N15K, I20V, S32T, D33N, I34N, T64A, S74N, V83L, H141R counted along it
T4 sequence (Q95LI7 23-181, chain 3 of 3): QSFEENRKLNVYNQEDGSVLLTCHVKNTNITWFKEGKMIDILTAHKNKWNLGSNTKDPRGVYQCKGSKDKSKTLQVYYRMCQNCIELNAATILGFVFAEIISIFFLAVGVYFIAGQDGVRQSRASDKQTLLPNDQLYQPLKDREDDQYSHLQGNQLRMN
Text: as §2

Row | Binder | Kd [1] [nM] | Kd [2] [nM] | Kd [3] [nM] | Kd [4] [nM] | binding result [5] | binding result [6]
1 | B1 | 11.3 | 4.83 | 21.2 | 3.29 |  | 
2 | B2 |  |  |  |  | binds | no binding
